Results: patent US20230167164A1 (IMMUNOWAKE, published 2023)

T1: human IL-2 receptor (human, UniProt P01589 22-272; P14784 27-551; P31785 23-369)
T1 sequence (looked up) 1: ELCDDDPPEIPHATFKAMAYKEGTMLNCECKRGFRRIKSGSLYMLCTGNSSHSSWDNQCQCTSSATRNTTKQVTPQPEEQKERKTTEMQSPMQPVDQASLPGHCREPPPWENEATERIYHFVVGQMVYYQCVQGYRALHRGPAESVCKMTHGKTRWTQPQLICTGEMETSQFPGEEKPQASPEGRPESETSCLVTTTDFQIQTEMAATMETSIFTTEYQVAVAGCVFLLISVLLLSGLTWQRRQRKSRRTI
T1 sequence (looked up) 2: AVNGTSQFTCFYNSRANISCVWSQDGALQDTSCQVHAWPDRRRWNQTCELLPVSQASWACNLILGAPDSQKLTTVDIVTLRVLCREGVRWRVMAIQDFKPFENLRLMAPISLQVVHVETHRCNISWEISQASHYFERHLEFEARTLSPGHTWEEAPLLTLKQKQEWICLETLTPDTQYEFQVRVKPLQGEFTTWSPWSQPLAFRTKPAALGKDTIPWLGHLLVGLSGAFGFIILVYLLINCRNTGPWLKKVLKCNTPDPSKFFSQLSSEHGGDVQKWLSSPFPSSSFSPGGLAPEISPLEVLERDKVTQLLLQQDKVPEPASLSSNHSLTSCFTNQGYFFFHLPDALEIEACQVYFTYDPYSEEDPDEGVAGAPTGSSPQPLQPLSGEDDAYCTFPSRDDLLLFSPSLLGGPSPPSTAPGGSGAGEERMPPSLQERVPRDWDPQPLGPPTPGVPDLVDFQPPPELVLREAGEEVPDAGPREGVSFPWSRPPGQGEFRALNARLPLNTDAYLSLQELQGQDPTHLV
T1 sequence (looked up) 3: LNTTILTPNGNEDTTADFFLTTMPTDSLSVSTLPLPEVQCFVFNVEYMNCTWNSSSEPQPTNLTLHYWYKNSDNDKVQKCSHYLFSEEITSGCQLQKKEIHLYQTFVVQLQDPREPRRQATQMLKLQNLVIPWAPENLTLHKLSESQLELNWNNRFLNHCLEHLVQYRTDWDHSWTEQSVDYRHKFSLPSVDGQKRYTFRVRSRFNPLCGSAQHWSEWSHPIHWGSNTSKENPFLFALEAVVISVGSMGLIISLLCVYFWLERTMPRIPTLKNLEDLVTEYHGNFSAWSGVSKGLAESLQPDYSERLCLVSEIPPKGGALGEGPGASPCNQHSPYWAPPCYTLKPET


Assays:
CD8 on CD8+ T cells = biological target: T2, CD8 on CD8+ T cells (human, UniProt P01732 22-235); assay: FACS on CD8+ T cells
T2 construct: whole, on cells

[1] = biological target: T3, human IL-12 receptor complex (human, UniProt P42701 24-662; Q99665 24-862); assay: cell-based or functional assay
human IL-2 receptor = biological target: T1, human IL-2 receptor; assay: cell-based or functional assay
[2] = biological target: T3, human IL-12 receptor complex; assay: cell-based or functional assay; remark: listed apart in the source
[3] = biological target: human PD-1 overexpressed on HEK-Blue reporter cells (human, UniProt Q15116 25-288); assay: cell-based or functional assay
human PD-1 overexpressed on HEK-Blue reporter cells, sequence (Q15116 25-288): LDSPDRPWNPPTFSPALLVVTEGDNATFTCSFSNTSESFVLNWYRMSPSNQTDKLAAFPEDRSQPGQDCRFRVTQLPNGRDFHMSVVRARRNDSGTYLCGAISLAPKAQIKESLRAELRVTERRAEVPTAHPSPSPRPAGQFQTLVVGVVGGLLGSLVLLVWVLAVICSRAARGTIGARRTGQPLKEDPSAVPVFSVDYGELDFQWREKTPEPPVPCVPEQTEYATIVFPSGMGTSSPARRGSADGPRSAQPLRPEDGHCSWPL

T3 sequence (Q99665 24-862, chain 2 of 2, other chains not shown): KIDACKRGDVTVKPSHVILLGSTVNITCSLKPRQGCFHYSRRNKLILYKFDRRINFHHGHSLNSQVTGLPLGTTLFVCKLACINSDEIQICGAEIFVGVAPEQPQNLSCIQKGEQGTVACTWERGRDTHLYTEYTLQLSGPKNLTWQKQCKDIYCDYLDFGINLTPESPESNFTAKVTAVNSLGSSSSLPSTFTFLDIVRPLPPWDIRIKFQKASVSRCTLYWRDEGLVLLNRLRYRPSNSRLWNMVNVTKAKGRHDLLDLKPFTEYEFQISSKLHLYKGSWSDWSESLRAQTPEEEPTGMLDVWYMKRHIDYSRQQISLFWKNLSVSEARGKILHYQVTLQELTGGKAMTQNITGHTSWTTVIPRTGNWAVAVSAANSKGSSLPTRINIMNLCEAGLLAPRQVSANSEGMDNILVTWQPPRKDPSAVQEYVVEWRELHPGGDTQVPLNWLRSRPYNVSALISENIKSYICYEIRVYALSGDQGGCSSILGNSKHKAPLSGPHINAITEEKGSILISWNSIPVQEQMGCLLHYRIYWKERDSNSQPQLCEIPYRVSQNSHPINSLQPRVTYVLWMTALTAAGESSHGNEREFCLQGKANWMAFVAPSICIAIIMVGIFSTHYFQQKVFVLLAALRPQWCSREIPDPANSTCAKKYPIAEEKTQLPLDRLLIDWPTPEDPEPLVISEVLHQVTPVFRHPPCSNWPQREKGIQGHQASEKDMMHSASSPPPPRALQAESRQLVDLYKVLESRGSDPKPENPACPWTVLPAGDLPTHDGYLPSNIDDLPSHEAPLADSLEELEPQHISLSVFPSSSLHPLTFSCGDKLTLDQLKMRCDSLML
T2 sequence (P01732 22-235): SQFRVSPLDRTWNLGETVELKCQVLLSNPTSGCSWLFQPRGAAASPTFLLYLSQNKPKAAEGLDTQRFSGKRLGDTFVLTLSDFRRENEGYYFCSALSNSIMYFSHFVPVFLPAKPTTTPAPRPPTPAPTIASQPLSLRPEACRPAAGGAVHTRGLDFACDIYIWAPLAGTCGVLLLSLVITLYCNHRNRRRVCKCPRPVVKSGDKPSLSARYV

| binding result (CD8 on CD8+ T cells) | IFN-γ release, % of rIL-12, activated CD8+ T cells [1] | IL-2 signal transduction, % of rIL-2, HEK-IL-2 cells (human IL-2 receptor) | IL-12 signal transduction, % of rIL-12, HEK-IL-12 cells [2] | IL-2 signal transduction, % of rIL-2, HEK-IL-2-PD-1 cells [3] | IL-12 signal transduction, % of rIL-12, HEK-IL-12-PD-1 cells [3] | Binder |
| --- | --- | --- | --- | --- | --- | --- |
| no binding | 25% | – | – | – | – | Fab-IL-12(WT)-Fc-CD4 Ab (other) heavy 1: QVQLQQSGPEVVKPGASVKMSCKASGYTFTSYVIHWVRQKPGQGLDWIGYINPYNDGTDYDEKFKGKATLTSDTSTSTAYMELSSLRSEDTAVYYCAREKDNYATGAWFAYWGQGTLVTVSSASTKGPSVFPLAPSSKSTSGGTAALGCLVKDYFPEPVTVSWNSGALTSGVHTFPAVLQSSGLYSLSSVVTVPSSSLGTQTYICNVNHKPSNTKVDKKVEPKSCDKPGSGIWELKKDVYVVELDWYPDAPGEMVVLTCDTPEEDGITWTLDQSSEVLGSGKTLTIQVKEFGDAGQYTCHKGGEVLSHSLLLLHKKEDGIWSTDILKDQKEPKNKTFLRCEAKNYSGRFTCWWLTTISTDLTFSVKSSRGSSDPQGVTCGAATLSAERVRGDNKEYEYSVECQEDSACPAAEESLPIEVMVDAVHKLKYENYTSSFFIRDIIKPDPPKNLQLKPLKNSRQVEVSWEYPDTWSTPHSYFSLTFCVQVQGKSKREKKDRVFTDKTSATVICRKNASISVRAQDRYYSSSWSEWASVPCSGGGGSGGGGSGGGGSGGGGSGRNLPVATPDPGMFPCLHHSQNLLRAVSNMLQKARQTLEFYPCTSEEIDHEDITKDKTSTVEACLPLELTKNESCLNSRETSFITNGSCLASRKTSFMMALCLSSIYEDLKMYQVEFKTMNAKLLMDPKRQIFLDQNMLAVIDELMQALNFNSETVPQKSSLEEPDFYKTKIKLCILLHAFRIRAVTIDRVMSYLNASDKTHTCPPCPAPEDEGGPSVFLFPPKPKDTLMISRTPEVTCVVVDVSHEDPEVKFNWYVDGVEVHNAKTKPREEQYNSTYRVVSVLTVLHQDWLNGKEYKCKVSNKALPAPIEKTISKAKGQPREPQVYVYPPSREEMTKNQVSLTCLVKGFYPSDIAVEWESNGQPENNYKTTPPVLDEDGSFALVSKLTVDKSRWQQGNVFSCSVMHEALHNHYTQKSLSLSPGK heavy 2: QVQLQQSGPEVVKPGASVKMSCKASGYTFTSYVIHWVRQKPGQGLDWIGYINPYNDGTDYDEKFKGKATLTSDTSTSTAYMELSSLRSEDTAVYYCAREKDNYATGAWFAYWGQGTLVTVSSASTKGPSVFPLAPSSKSTSGGTAALGCLVKDYFPEPVTVSWNSGALTSGVHTFPAVLQSSGLYSLSSVVTVPSSSLGTQTYICNVNHKPSNTKVDKKVEPKSCDKTHTCPPCPAPEKKGGPSVFLFPPKPKDTLMISRTPEVTCVVVDVSHEDPEVKFNWYVDGVEVHNAKTKPREEQYNSTYRVVSVLTVLHQDWLNGKEYKCKVSNKALPAPIEKTISKAKGQPREPQVYVLPPSREEMTKNQVSLLCLVKGFYPSDIAVEWESNGQPENRYMTWPPVLDSDGSFFLYSKLTVDKSRWQQGNVFSCSVMHEALHNHYTQKSLSLSPGK light: not shown |
| – | – | 3% | 2% | 32% | 27% | IL-2(L18R/Q22E/R38D/K43E/E61R)/PD-L1(mut2)-Fc/IL-12(E59A/F60A) (Fc fusion) chain 1: FTVTVPKDLYVVEYGSNMTIECKFPVEKQLDLAALQVYWMMEDKNIIQFVHGEEDLKVQHSSYRQRARLLKDQLSLGNAALQITDVKLQDAGVYTCLIAYKGADYKRITVKVNAPYNKINQRILVVDPVTSEHELTCQAEGYPKAEVIWTSSDHQVLSGKTTTTNSKREEKLFNVTSTLRINTTTNEIFYCTFRRLDPEENHTAELVIPELPLAHPPNERGGGGSGGGDKTHTCPPCPAPEDEGGPSVFLFPPKPKDTLMISRTPEVTCVVVDVSHEDPEVKFNWYVDGVEVHNAKTKPREEQYNSTYRVVSVLTVLHQDWLNGKEYKCKVSNKALPAPIEKTISKAKGQPREPQVYVYPPSREEMTKNQVSLTCLVKGFYPSDIAVEWESNGQPENNYKTTPPVLDEDGSFALVSKLTVDKSRWQQGNVFSCSVMHEALHNHYTQKSLSLSPGKGGGGSGGGIWELKKDVYVVELDWYPDAPGEMVVLTCDTPEEDGITWTLDQSSEVLGSGKTLTIQVKAAGDAGQYTCHKGGEVLSHSLLLLHKKEDGIWSTDILKDQKEPKNKTFLRCEAKNYSGRFTCWWLTTISTDLTFSVKSSRGSSDPQGVTCGAATLSAERVRGDNKEYEYSVECQEDSACPAAEESLPIEVMVDAVHKLKYENYTSSFFIRDIIKPDPPKNLQLKPLKNSRQVEVSWEYPDTWSTPHSYFSLTFCVQVQGKSKREKKDRVFTDKTSATVICRKNASISVRAQDRYYSSSWSEWASVPCSGGGGSGGGSGGGGSRNLPVATPDPGMFPCLHHSQNLLRAVSNMLQKARQTLEFYPCTSEEIDHEDITKDKTSTVEACLPLELTKNESCLNSRETSFITNGSCLASRKTSFMMALCLSSIYEDLKMYQVEFKTMNAKLLMDPKRQIFLDQNMLAVIDELMQALNFNSETVPQKSSLEEPDFYKTKIKLCILLHAFRIRAVTIDRVMSYLNAS chain 2: FTVTVPKDLYVVEYGSNMTIECKFPVEKQLDLAALQVYWMMEDKNIIQFVHGEEDLKVQHSSYRQRARLLKDQLSLGNAALQITDVKLQDAGVYTCLIAYKGADYKRITVKVNAPYNKINQRILVVDPVTSEHELTCQAEGYPKAEVIWTSSDHQVLSGKTTTTNSKREEKLFNVTSTLRINTTTNEIFYCTFRRLDPEENHTAELVIPELPLAHPPNERGGGSGAPTSSSTKKTQLQLEHLRLDLEMILNGINNYKNPKLTDMLTFEFYMPKKATELKHLQCLERELKPLEEVLNLAQSKNFHLRPRDLISNINVIVLELKGSETTFMCEYADETATIVEFLNRWITFCQSIISTLTGGGGSGGGDKTHTCPPCPAPEKKGGPSVFLFPPKPKDTLMISRTPEVTCVVVDVSHEDPEVKFNWYVDGVEVHNAKTKPREEQYNSTYRVVSVLTVLHQDWLNGKEYKCKVSNKALPAPIEKTISKAKGQPREPQVYVLPPSREEMTKNQVSLLCLVKGFYPSDIAVEWESNGQPENRYMTWPPVLDSDGSFFLYSKLTVDKSRWQQGNVFSCSVMHEALHNHYTQKSLSLSPGK |
| – | – | 3% | 1% | 31% | 30% | IL-2(R38D/K43E/E61R/Q126T)/PD-L1(mut2)-Fc/IL-12(E59A/F60A) (Fc fusion) chain 1: FTVTVPKDLYVVEYGSNMTIECKFPVEKQLDLAALQVYWMMEDKNIIQFVHGEEDLKVQHSSYRQRARLLKDQLSLGNAALQITDVKLQDAGVYTCLIAYKGADYKRITVKVNAPYNKINQRILVVDPVTSEHELTCQAEGYPKAEVIWTSSDHQVLSGKTTTTNSKREEKLFNVTSTLRINTTTNEIFYCTFRRLDPEENHTAELVIPELPLAHPPNERGGGGSGGGDKTHTCPPCPAPEDEGGPSVFLFPPKPKDTLMISRTPEVTCVVVDVSHEDPEVKFNWYVDGVEVHNAKTKPREEQYNSTYRVVSVLTVLHQDWLNGKEYKCKVSNKALPAPIEKTISKAKGQPREPQVYVYPPSREEMTKNQVSLTCLVKGFYPSDIAVEWESNGQPENNYKTTPPVLDEDGSFALVSKLTVDKSRWQQGNVFSCSVMHEALHNHYTQKSLSLSPGKGGGGSGGGIWELKKDVYVVELDWYPDAPGEMVVLTCDTPEEDGITWTLDQSSEVLGSGKTLTIQVKAAGDAGQYTCHKGGEVLSHSLLLLHKKEDGIWSTDILKDQKEPKNKTFLRCEAKNYSGRFTCWWLTTISTDLTFSVKSSRGSSDPQGVTCGAATLSAERVRGDNKEYEYSVECQEDSACPAAEESLPIEVMVDAVHKLKYENYTSSFFIRDIIKPDPPKNLQLKPLKNSRQVEVSWEYPDTWSTPHSYFSLTFCVQVQGKSKREKKDRVFTDKTSATVICRKNASISVRAQDRYYSSSWSEWASVPCSGGGGSGGGSGGGGSRNLPVATPDPGMFPCLHHSQNLLRAVSNMLQKARQTLEFYPCTSEEIDHEDITKDKTSTVEACLPLELTKNESCLNSRETSFITNGSCLASRKTSFMMALCLSSIYEDLKMYQVEFKTMNAKLLMDPKRQIFLDQNMLAVIDELMQALNFNSETVPQKSSLEEPDFYKTKIKLCILLHAFRIRAVTIDRVMSYLNAS chain 2: FTVTVPKDLYVVEYGSNMTIECKFPVEKQLDLAALQVYWMMEDKNIIQFVHGEEDLKVQHSSYRQRARLLKDQLSLGNAALQITDVKLQDAGVYTCLIAYKGADYKRITVKVNAPYNKINQRILVVDPVTSEHELTCQAEGYPKAEVIWTSSDHQVLSGKTTTTNSKREEKLFNVTSTLRINTTTNEIFYCTFRRLDPEENHTAELVIPELPLAHPPNERGGGSGAPTSSSTKKTQLQLEHLLLDLQMILNGINNYKNPKLTDMLTFEFYMPKKATELKHLQCLERELKPLEEVLNLAQSKNFHLRPRDLISNINVIVLELKGSETTFMCEYADETATIVEFLNRWITFCTSIISTLTGGGGSGGGDKTHTCPPCPAPEKKGGPSVFLFPPKPKDTLMISRTPEVTCVVVDVSHEDPEVKFNWYVDGVEVHNAKTKPREEQYNSTYRVVSVLTVLHQDWLNGKEYKCKVSNKALPAPIEKTISKAKGQPREPQVYVLPPSREEMTKNQVSLLCLVKGFYPSDIAVEWESNGQPENRYMTWPPVLDSDGSFFLYSKLTVDKSRWQQGNVFSCSVMHEALHNHYTQKSLSLSPGK |
